Results published in publication PMC5014123 (Nature communications, 2015).
“And” between values parts separate entries of the source, which are not always exact repeats. Equal entries are not always repeated. Non-standard residues stand in square brackets, D forms with d.

B1: Inactive recombinant human ADAM8 (Met1-Pro497) (domain or fragment, UniProt P78325-1 17-497, looked up)
chain: IAPSRPWALMEQYEVVLPWRLPGPRVRRALPSHLGLHPERVSYVLGATGHNFTLHLRKNRDLLGSGYTETYTAANGSEVTEQPRGQDHCFYQGHVEGYPDSAASLSTCAGLRGFFQVGSDLHLIEPLDEGGEGGRHAVYQAEHLLQTAGTCGVSDDSLGSLLGPRTAAVFRPRPGDSLPSRETRYVELYVVVDNAEFQMLGSEAAVRHRVLEVVNHVDKLYQKLNFRVVLVGLEIWNSQDRFHVSPDPSVTLENLLTWQARQRTRRHLHDNVQLITGVDFTGTTVGFARVSAMCSHSSGAVNQDHSKNPVGVACTMAHEMGHNLGMDHDENVQGCRCQERFEAGRCIMAGSIGSSFPRMFSDCSQAYLESFLERPQSVCLANAPDLSHLVGGPVCGNLFVERGEQCDCGPPEDCRNRCCNSTTCQLAEGAQCAHGTCCQECKVKPAGELCRPKKDMCDLEEFCDGRHPECPEDAFQENGTP
B2: cyclo-RLsKDK (BK-1361) (peptide)
peptide: cyclo(RL[dS]KDK)
SMILES: CC(C)C[C@@H]1NC(=O)[C@H](CCCNC(=N)N)NC(=O)[C@H](CCCCN)NC(=O)[C@H](CC(=O)O)NC(=O)[C@H](CCCCN)NC(=O)[C@@H](CO)NC1=O

Tests used:
[1] = target: the molecule itself; assay: native gel or EMSA
[2] = target: MMP-2 (UniProt P08253 30-660); assay: cell-based or functional assay
[3] = target: MMP-14 (UniProt P50281 112-541); assay: cell-based or functional assay

Sequence of MMP-2 (P08253 30-660): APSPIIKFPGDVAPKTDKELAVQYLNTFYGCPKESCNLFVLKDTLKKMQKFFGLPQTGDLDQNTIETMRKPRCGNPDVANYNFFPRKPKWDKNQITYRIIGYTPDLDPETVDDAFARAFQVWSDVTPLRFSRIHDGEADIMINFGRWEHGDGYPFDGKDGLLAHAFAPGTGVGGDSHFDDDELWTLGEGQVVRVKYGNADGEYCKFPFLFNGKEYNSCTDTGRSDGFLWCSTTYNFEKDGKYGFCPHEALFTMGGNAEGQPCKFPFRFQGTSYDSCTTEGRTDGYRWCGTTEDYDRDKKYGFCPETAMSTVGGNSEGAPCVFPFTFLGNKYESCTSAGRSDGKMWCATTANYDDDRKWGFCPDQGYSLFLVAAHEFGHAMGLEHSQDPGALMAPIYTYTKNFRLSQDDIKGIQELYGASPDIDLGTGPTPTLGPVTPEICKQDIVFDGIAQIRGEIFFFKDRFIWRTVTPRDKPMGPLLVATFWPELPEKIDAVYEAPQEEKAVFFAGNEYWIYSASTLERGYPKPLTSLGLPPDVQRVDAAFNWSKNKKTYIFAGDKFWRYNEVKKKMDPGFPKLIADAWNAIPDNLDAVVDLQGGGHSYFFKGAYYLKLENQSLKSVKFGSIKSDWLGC

Row | Binder | stoichiometry N [1] | IC50 of inhibition of catalytic activity (substrate Mca-PLGL-Dpa-AR-NH2) [2] | IC50 of inhibition of catalytic activity (substrate Mca-KPLGL-Dpa-AR-NH2) [3]
1 | B1 | 2 and 3 | – | –
2 | B2 | – | > 10 µM | > 10 µM
